According to patent US20230183665A1, “THERMOSTABLE GLUCOCEREBROSIDASE” (TEIKYO UNIVERSITY, priority 2020, published 2023):

T1: RGC1 (Oryza sativa subsp. japonica, UniProt Q8L7J2)
T1 construct: The resulting solution was used as rice-derived glucocerebrosidase (RGC1); from tissue; host or cells: stems of rice (Oryza sativa L. cv. Nipponbare)
T1 sequence (Q8L7J2 38-521 limits assumed): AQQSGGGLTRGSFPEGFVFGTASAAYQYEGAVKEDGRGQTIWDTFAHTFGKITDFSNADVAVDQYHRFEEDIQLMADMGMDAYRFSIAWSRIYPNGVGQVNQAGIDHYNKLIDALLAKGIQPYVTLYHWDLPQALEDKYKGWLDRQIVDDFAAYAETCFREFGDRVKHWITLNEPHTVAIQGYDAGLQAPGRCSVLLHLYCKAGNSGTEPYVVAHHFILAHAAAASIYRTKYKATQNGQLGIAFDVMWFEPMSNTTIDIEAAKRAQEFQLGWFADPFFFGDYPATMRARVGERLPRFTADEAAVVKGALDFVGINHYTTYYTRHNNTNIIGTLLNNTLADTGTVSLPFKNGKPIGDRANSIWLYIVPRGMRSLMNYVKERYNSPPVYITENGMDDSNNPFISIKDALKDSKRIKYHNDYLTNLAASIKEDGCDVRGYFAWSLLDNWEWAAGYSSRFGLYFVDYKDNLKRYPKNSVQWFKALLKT


Experiments:
RGC1 = target: T1, RGC1; experiment: Substrate specificity of RGC1: ceramide generated from glucosylceramide or synthetic β-glucoside substrates (Example 3); format: biochemical, rice (Oryza sativa L. cv. Nipponbare); details: enzyme RGC1, 12.5 μM substrate, pH 5.5, 37° C., 15 minutes; for Relative activity (%): activity with d18:1(4E)-C8:0-GluCer defined as 100, average of five tests
Method: (§1) The glucocerebrosidase activity of the fraction was measured as follows: a predetermined amount of sample was added to a 50 mM acetate buffer solution (pH 5.5) containing 100 μM glucosylceramide (cerebroside B), 0.1% Tween 20, and 0.05% sodium cholate, and incubated at 37° C. for 15 minutes. Subsequently, a 4-fold amount of ethanol was added to the obtained reaction solution, mixed therewith, and then centrifuged at 15000 rpm for 20 minutes. The centrifuged supernatant was subjected to high-performance liquid chromatography analysis. In the high-performance liquid chromatography analysis, the sample was injected to TSKgel ODS-120T column (4.6 mm×30 cm), and a solvent having an ethanol concentration of 83% was flowed at a flow rate of 0.8 mL/min, followed by detection in a UV detector (ultraviolet absorption wavelength: 215 nm) to thereby measure the amount of ceramide newly generated through enzymatic reaction. The amount of ceramide was determined by using, as a standard, ceramide generated from cerebroside B by imiglucerase (manufactured by Sanofi S. A.), human-derived glucocerebrosidase. The molecular weight of the generated ceramide was examined by negative LC-MS (manufactured by Agilent Technologies, Inc.) to thereby confirm that it was ceramide generated from cerebroside B (ESI-MS m/z: 564.5[M-H]^−). Glucocerebrosidase activity per mL of the enzyme solution was calculated when the amount of the enzyme that generated 1 μmol of ceramide for 1 minute in the enzymatic reaction solution was defined as 1 unit (U).
RGC1 obtained in Example 2 was added to 12.5 μM glucosylceramide (one of the 12 animal-derived, plant-derived, or filamentous fungus-derived ones in Table 2 below) or synthetic β-glucoside, and a 50 mM acetate buffer solution (pH 5.5) containing 0.1% Tween 20 and 0.05% sodium cholate, and incubated at 37° C. for 15 minutes. Subsequently, a 4-fold amount of ethanol was added to the obtained reaction solution, mixed therewith, and then centrifuged under a condition of 15000 rpm for 20 minutes. The amount of ceramide in the supernatant was measured by high-performance liquid chromatography using various reverse-phase columns to thereby determine glucocerebrosidase activity. The amount of ceramide was determined by using, as a standard, ceramide generated from the glucosylceramide by imiglucerase. The glucocerebrosidase activity was determined as relative activity when activity in the case of using animal-derived glucosylceramide d18:1(4E)-C8:0-GluCer as a substrate was defined as 100 (rightmost column of Table 2 below). This test was conducted five times, and average relative activity was determined therefrom.

[1] = Optimum temperature for glucocerebrosidase activity (Examples 5, 12, 20); format: biochemical
Method: as §1
RGC1 obtained in Example 2 and imiglucerase were each added to a 50 mM acetate buffer solution (pH 5.5) containing 100 μM glucosylceramide (cerebroside B), 0.1% Tween 20, and 0.05% sodium cholate, and incubated at each temperature for 15 minutes. Subsequently, a 4-fold amount of ethanol was added to the obtained reaction solution, mixed therewith, and then centrifuged under a condition of 15000 rpm for 20 minutes. The supernatant was subjected to high-performance liquid chromatography analysis to measure the amount of ceramide generated through enzymatic reaction. The high-performance liquid chromatography analysis was carried out in the same manner as in Example 2. The amount of ceramide and enzymatic activity were also calculated in the same manner as in Example 2. A temperature that attained the highest glucocerebrosidase activity was regarded as the optimum temperature. This test was conducted three times, and an average value was determined therefrom.
The optimum temperatures for the glucocerebrosidase activity of SGC1 obtained in Example 11 and imiglucerase were confirmed by the same method as in Example 5.
Enzyme extracts derived from various plants which were obtained in accordance with Example 19, the purified rice-derived RGC1 mentioned above and the purified soybean-derived SGC1 mentioned above were each added to a 50 mM sodium acetate buffer solution (pH 5.5) containing 100 μM glucosylceramide (cerebroside B), 0.1% Tween 20, and 0.05% sodium cholate, and incubated at each temperature for 15 minutes. Subsequently, a 4-fold amount of ethanol was added to the obtained reaction solution, mixed therewith, and then centrifuged at 15000 rpm for 20 minutes. The supernatant was subjected to high-performance liquid chromatography analysis to measure the amount of ceramide generated through enzymatic reaction. The high-performance liquid chromatography analysis was carried out in the same manner as in Example 5. The amount of ceramide and enzymatic activity were also calculated in the same manner as in Example 5. As a result, a temperature that attained the highest glucocerebrosidase activity was regarded as the optimum temperature. This test was conducted three times, and an average value was determined therefrom.

[2] = Thermostability: relative residual glucocerebrosidase activity after incubation at pH 5 and pH 7 (Examples 6, 13); format: physicochemical; details: 45° C.; pH 5 for 1 to 31 hours, pH 7 for 0.3 to 5 hours; FIGS. 3 and 4
Method: The glucocerebrosidase activity of the fraction was measured as follows: a predetermined amount of sample was added to a 50 mM acetate buffer solution (pH 5.5) containing 100 μM glucosylceramide (cerebroside B), 0.1% Tween 20, and 0.05% sodium cholate, and incubated at 37° C. for 15 minutes. Subsequently, a 4-fold amount of ethanol was added to the obtained reaction solution, mixed therewith, and then centrifuged at 15000 rpm for 20 minutes. The centrifuged supernatant was subjected to high-performance liquid chromatography analysis. […] The amount of ceramide was determined by using, as a standard, ceramide generated from cerebroside B by imiglucerase (manufactured by Sanofi S. A.), human-derived glucocerebrosidase. […] Glucocerebrosidase activity per mL of the enzyme solution was calculated when the amount of the enzyme that generated 1 μmol of ceramide for 1 minute in the enzymatic reaction solution was defined as 1 unit (U).
RGC1 obtained in Example 2 and imiglucerase were each incubated at pH 5 simulating lysosome (50 mM acetate buffer solution (pH 5.0) containing 0.1% Triton X-100 and 0.05% sodium cholate) at 37° C. for 6 to 106 hours or at pH 7 simulating cytoplasm (50 mM potassium phosphate buffer solution (pH 7.0) containing 0.1% Triton X-100 and 0.05% sodium cholate) at 37° C. for 4 to 48 hours. […] This test was conducted three times, and an average value was determined therefrom. […]

[3] = Example 12, same method as Example 5
[4] = Example 20, 100 μM cerebroside B, pH 5.5, 15 minutes at each temperature, average of three tests

Molecule | Relative activity (%) (RGC1) | reaction of RGC1 with the substrate (in words) (RGC1) | Optimum temperature (° C.) [1, 3] | Optimum temperature (° C.) [1, 4] | further results
CCCCCCCCCCCCC/C=C/[C@@H](O)[C@H](CO[C@@H]1O[C@H](CO)[C@@H](O[C@@H]2O[C@H](CO)[C@H](O)[C@H](O[C@]3(C(=O)O)C[C@H](O)[C@@H](NC(C)=O)C([C@H](O)[C@H](O)CO)O3)[C@H]2O)[C@H](O)C1O)NC(=O)CCCCCCCCCCCCCCCCC (some centres unmarked) [d18:1(4E)-C18:0-GM3] | – | rarely reacted | – | – | –
O=[N+]([O-])c1ccc(O[C@@H]2O[C@H](CO)[C@@H](O)[C@H](O)[C@H]2O)cc1 [pNP-β-glucoside, 4-nitrophenyl-β-D-glucopyranoside] | 2.5% | rarely reacted | – | – | –
SGC1: soybean-derived glucocerebrosidase purified from soybean stems; identical to β-glucosidase 40, belongs to GH1; SEQ ID NO: 2 (protein, Oryza sativa L. cv. Nipponbare) MAFRGGTMLILTMMALLEIQICSSEINRGNFPNGFVFGTASSAFQYEGAVKEDGRGPSVWDTFSHTFGKIIDFSNADVAVDQYHRYEEDIQLMKDMGMDAYRFSISWSRIFPNGYGQINQAGVDHYNKLINALLAKGIEPYVTLYHWDLPQALENKYSGWLNASIIMDFATYAETCFQKFGDRVKHWITFNEPHTFATQGYDVGLQAPGRCSILLHLFCRAGNSATEPYIVAHNVLLSHATVADIYRKKYKKIQGGSLGVAFDVIWYEPLTNTKEDIDAAQRAQDFQLGWFLDPLMFGDYPSSMRTRVGSRLPKFSQSEAALVKGSLDFVGINHYTTFYAKDNSTNLIGTLLHDSIADSGAVTLPFNGTKAISERASSIWLYIVPQSMRSLMIYIKQKYGNPPVYITENGMDDPNSIFISIKDALKDEKRIRYHTGYLSYLLASIKDGCNVKGYFVWSLLDNWEWSAGYTSRFGLYFVDYKDNLKRYPKQSVEWFKNFLKPTK | – | – | 64.0 °C | 64.0 °C | stability (relative residual activity) compared with imiglucerase [2]: evidently much superior in stability to imiglucerase
Imiglucerase: human-derived glucocerebrosidase produced in Chinese hamster ovary cells by gene recombination (Sanofi S. A.), belonging to GH30 (protein, UniProt P04062 40-536, looked up, imiglucerase, human-derived glucocerebrosidase produced in Chinese hamster ovary cells by gene recombination (Sanofi S. A.), belonging to GH30) Lysosomal acid …: ARPCIPKSFGYSSVVCVCNATYCDSFDPPTFPALGTFSRYESTRSGRRMELSMGPIQANHTGTGLLLTLQPEQKFQKVKGFGGAMTDAAALNILALSPPAQNLLLKSYFSEEGIGYNIIRVPMASCDFSIRTYTYADTPDDFQLHNFSLPEEDTKLKIPLIHRALQLAQRPVSLLASPWTSPTWLKTNGAVNGKGSLKGQPGDIYHQTWARYFVKFLDAYAEHKLQFWAVTAENEPSAGLLSGYPFQCLGFTPEHQRDFIARDLGPTLANSTHHNVRLLMLDDQRLLLPHWAKVVLTDPEAAKYVHGIAVHWYLDFLAPAKATLGETHRLFPNTMLFASEACVGSKFWEQSVRLGSWDRGMQYSHSIITNLLYHVVGWTDWNLALNPEGGPNWVRNFVDSPIIVDITKDTFYKQPMFYHLGHFSKFIPEGSQRVGLVASQKNDLDAVALMHPDGSAVVVVLNRSSKDVPLTIKDPAVGFLETISPGYSIHTYLWRRQ | – | – | 42.5 °C | 42.5 °C | Optimum temperature (° C.) ([1]; Example 5, 100 μM cerebroside B, pH 5.5, 15 minutes at each temperature, average of three tests): 42.5 °C

Further lines, with some results ahead:

Relative activity (%) (RGC1) | reaction of RGC1 with the substrate (in words) (RGC1) | Molecule | Optimum temperature (° C.) [1, 3] | Optimum temperature (° C.) [1, 4] | further results
113.2% | – | CCCCCCCCCCCCCC/C=C/[C@@H](O)C(=O)N[C@@H](CO[C@@H]1O[C@H](CO)[C@@H](O)[C@H](O)[C@H]1O)[C@H](O)/C=C/CC/C=C(\C)CCCCCCCCC [d19:2(4E,8E,9Me)-C18h:1-GluCer, (4E,8E)-N-D-2′-hydroxy-(E)-3′-octadecenoyl-1-O-β-D-glucopyranosyl-9-methyl-4,8-sphingadienine] | – | – | –
116.7% | – | CCCCCCCCCCCCCC[C@@H](O)C(=O)N[C@@H](CO[C@@H]1O[C@H](CO)[C@@H](O)[C@H](O)[C@H]1O)[C@H](O)/C=C/CC/C=C(\C)CCCCCCCCC [d19:2(4E,8E,9Me)-C16h:0-GluCer, (4E,8E)-N-D-2′-hydroxypalmitoyl-1-O-β-D-glucopyranosyl-9-methyl-4,8-sphingadienine] | – | – | –
